The labels stand for the following.
B1: sp¦Q13895¦BYST_HUMAN (protein, UniProt Q13895 1-437, looked up)
Bystin: MPKFKAARGVGGQEKHAPLADQILAGNAVRAGVREKRRGRGTGEAEEEYVGPRLSRRILQQARQQQEELEAEHGTGDKPAAPRERTTRLGPRMPQDGSDDEDEEWPTLEKAATMTAAGHHAEVVVDPEDERAIEMFMNKNPPARRTLADIIMEKLTEKQTEVETVMSEVSGFPMPQLDPRVLEVYRGVREVLSKYRSGKLPKAFKIIPALSNWEQILYVTEPEAWTAAAMYQATRIFASNLKERMAQRFYNLVLLPRVRDDVAEYKRLNFHLYMALKKALFKPGAWFKGILIPLCESGTCTLREAIIVGSIITKCSIPVLHSSAAMLKIAEMEYSGANSIFLRLLLDKKYALPYRVLDALVFHFLGFRTEKRELPVLWHQCLLTLVQRYKADLATDQKEALLELLRLQPHPQLSPEIRRELQSAVPRDVEDVPITVE
B2: sp¦P55060¦XPO2_HUMAN (protein, UniProt P55060 1-971, looked up)
Exportin-2: MELSDANLQTLTEYLKKTLDPDPAIRRPAEKFLESVEGNQNYPLLLLTLLEKSQDNVIKVCASVTFKNYIKRNWRIVEDEPNKICEADRVAIKANIVHLMLSSPEQIQKQLSDAISIIGREDFPQKWPDLLTEMVNRFQSGDFHVINGVLRTAHSLFKRYRHEFKSNELWTEIKLVLDAFALPLTNLFKATIELCSTHANDASALRILFSSLILISKLFYSLNFQDLPEFFEDNMETWMNNFHTLLTLDNKLLQTDDEEEAGLLELLKSQICDNAALYAQKYDEEFQRYLPRFVTAIWNLLVTTGQEVKYDLLVSNAIQFLASVCERPHYKNLFEDQNTLTSICEKVIVPNMEFRAADEEAFEDNSEEYIRRDLEGSDIDTRRRAACDLVRGLCKFFEGPVTGIFSGYVNSMLQEYAKNPSVNWKHKDAAIYLVTSLASKAQTQKHGITQANELVNLTEFFVNHILPDLKSANVNEFPVLKADGIKYIMIFRNQVPKEHLLVSIPLLINHLQAESIVVHTYAAHALERLFTMRGPNNATLFTAAEIAPFVEILLTNLFKALTLPGSSENEYIMKAIMRSFSLLQEAIIPYIPTLITQLTQKLLAVSKNPSKPHFNHYMFEAICLSIRITCKANPAAVVNFEEALFLVFTEILQNDVQEFIPYVFQVMSLLLETHKNDIPSSYMALFPHLLQPVLWERTGNIPALVRLLQAFLERGSNTIASAAADKIPGLLGVFQKLIASKANDHQGFYLLNSIIEHMPPESVDQYRKQIFILLFQRLQNSKTTKFIKSFLVFINLYCIKYGALALQEIFDGIQPKMFGMVLEKIIIPEIQKVSGNVEKKICAVGITKLLTECPPMMDTEYTKLWTPLLQSLIGLFELPEDDTIPDEEHFIDIEDTPGYQTAFSQLAFAGKKEHDPVGQMVNNPKIHLAQSLHKLSTACPGRVPSMVSTSLNAEALQYLQGYLQAASVTLL
B3: sp¦P56192¦SYMC_HUMAN (protein, UniProt P56192 1-900, looked up)
Methionine--tRNA ligase, …: MRLFVSDGVPGCLPVLAAAGRARGRAEVLISTVGPEDCVVPFLTRPKVPVLQLDSGNYLFSTSAICRYFFLLSGWEQDDLTNQWLEWEATELQPALSAALYYLVVQGKKGEDVLGSVRRALTHIDHSLSRQNCPFLAGETESLADIVLWGALYPLLQDPAYLPEELSALHSWFQTLSTQEPCQRAAETVLKQQGVLALRPYLQKQPQPSPAEGRAVTNEPEEEELATLSEEEIAMAVTAWEKGLESLPPLRPQQNPVLPVAGERNVLITSALPYVNNVPHLGNIIGCVLSADVFARYSRLRQWNTLYLCGTDEYGTATETKALEEGLTPQEICDKYHIIHADIYRWFNISFDIFGRTTTPQQTKITQDIFQQLLKRGFVLQDTVEQLRCEHCARFLADRFVEGVCPFCGYEEARGDQCDKCGKLINAVELKKPQCKVCRSCPVVQSSQHLFLDLPKLEKRLEEWLGRTLPGSDWTPNAQFITRSWLRDGLKPRCITRDLKWGTPVPLEGFEDKVFYVWFDATIGYLSITANYTDQWERWWKNPEQVDLYQFMAKDNVPFHSLVFPCSALGAEDNYTLVSHLIATEYLNYEDGKFSKSRGVGVFGDMAQDTGIPADIWRFYLLYIRPEGQDSAFSWTDLLLKNNSELLNNLGNFINRAGMFVSKFFGGYVPEMVLTPDDQRLLAHVTLELQHYHQLLEKVRIRDALRSILTISRHGNQYIQVNEPWKRIKGSEADRQRAGTVTGLAVNIAALLSVMLQPYMPTVSATIQAQLQLPPPACSILLTNFLCTLPAGHQIGTVSPLFQKLENDQIESLRQRFGGGQAKTSPKPAVVETVTTAKPQQIQALMDEVTKQGNIVRELKAQKADKNEVAAEVAKLLDLKKQLAVAEGKPPEAPKGKKKK
B4: sp¦P21912¦SDHB_HUMAN (protein, UniProt P21912 29-280, looked up)
Succinate dehydrogenase …: AQTAAATAPRIKKFAIYRWDPDKAGDKPHMQTYEVDLNKCGPMVLDALIKIKNEVDSTLTFRRSCREGICGSCAMNINGGNTLACTRRIDTNLNKVSKIYPLPHMYVIKDLVPDLSNFYAQYKSIEPYLKKKDESQEGKQQYLQSIEEREKLDGLYECILCACCSTSCPSYWWNGDKYLGPAVLMQAYRWMIDSRDDFTEERLAKLQDPFSLYRCHTIMNCTRTCPKGLNPGKAIAEIKKMMATYKEKKASV
B5: sp¦Q8TEX9¦IPO4_HUMAN (protein, UniProt Q8TEX9 1-1081, looked up)
Importin-4: MESAGLEQLLRELLLPDTERIRRATEQLQIVLRAPAALPALCDLLASAADPQIRQFAAVLTRRRLNTRWRRLAAEQRESLKSLILTALQRETEHCVSLSLAQLSATIFRKEGLEAWPQLLQLLQHSTHSPHSPEREMGLLLLSVVVTSRPEAFQPHHRELLRLLNETLGEVGSPGLLFYSLRTLTTMAPYLSTEDVPLARMLVPKLIMAMQTLIPIDEAKACEALEALDELLESEVPVITPYLSEVLTFCLEVARNVALGNAIRIRILCCLTFLVKVKSKALLKNRLLPPLLHTLFPIVAAEPPPGQLDPEDQDSEEEELEIELMGETPKHFAVQVVDMLALHLPPEKLCPQLMPMLEEALRSESPYQRKAGLLVLAVLSDGAGDHIRQRLLPPLLQIVCKGLEDPSQVVRNAALFALGQFSENLQPHISSYSREVMPLLLAYLKSVPLGHTHHLAKACYALENFVENLGPKVQPYLPELMECMLQLLRNPSSPRAKELAVSALGAIATAAQASLLPYFPAIMEHLREFLLTGREDLQPVQIQSLETLGVLARAVGEPMRPLAEECCQLGLGLCDQVDDPDLRRCTYSLFAALSGLMGEGLAPHLEQITTLMLLSLRSTEGIVPQYDGSSSFLLFDDESDGEEEEELMDEDVEEEDDSEISGYSVENAFFDEKEDTCAAVGEISVNTSVAFLPYMESVFEEVFKLLECPHLNVRKAAHEALGQFCCALHKACQSCPSEPNTAALQAALARVVPSYMQAVNRERERQVVMAVLEALTGVLRSCGTLTLKPPGRLAELCGVLKAVLQRKTACQDTDEEEEEEDDDQAEYDAMLLEHAGEAIPALAAAAGGDSFAPFFAGFLPLLVCKTKQGCTVAEKSFAVGTLAETIQGLGAASAQFVSRLLPVLLSTAQEADPEVRSNAIFGMGVLAEHGGHPAQEHFPKLLGLLFPLLARERHDRVRDNICGALARLLMASPTRKPEPQVLAALLHALPLKEDLEEWVTIGRLFSFLYQSSPDQVIDVAPELLRICSLILADNKIPPDTKAALLLLLTFLAKQHTDSFQAALGSLPVDKAQELQAVLGLS
B6: sp¦Q92973¦TNPO1_HUMAN (protein, UniProt Q92973 1-898, looked up)
Transportin-1: MVWDRQTKMEYEWKPDEQGLQQILQLLKESQSPDTTIQRTVQQKLEQLNQYPDFNNYLIFVLTKLKSEDEPTRSLSGLILKNNVKAHFQNFPNGVTDFIKSECLNNIGDSSPLIRATVGILITTIASKGELQNWPDLLPKLCSLLDSEDYNTCEGAFGALQKICEDSAEILDSDVLDRPLNIMIPKFLQFFKHSSPKIRSHAVACVNQFIISRTQALMLHIDSFIENLFALAGDEEPEVRKNVCRALVMLLEVRMDRLLPHMHNIVEYMLQRTQDQDENVALEACEFWLTLAEQPICKDVLVRHLPKLIPVLVNGMKYSDIDIILLKGDVEEDETIPDSEQDIRPRFHRSRTVAQQHDEDGIEEEDDDDDEIDDDDTISDWNLRKCSAAALDVLANVYRDELLPHILPLLKELLFHHEWVVKESGILVLGAIAEGCMQGMIPYLPELIPHLIQCLSDKKALVRSITCWTLSRYAHWVVSQPPDTYLKPLMTELLKRILDSNKRVQEAACSAFATLEEEACTELVPYLAYILDTLVFAFSKYQHKNLLILYDAIGTLADSVGHHLNKPEYIQMLMPPLIQKWNMLKDEDKDLFPLLECLSSVATALQSGFLPYCEPVYQRCVNLVQKTLAQAMLNNAQPDQYEAPDKDFMIVALDLLSGLAEGLGGNIEQLVARSNILTLMYQCMQDKMPEVRQSSFALLGDLTKACFQHVKPCIADFMPILGTNLNPEFISVCNNATWAIGEISIQMGIEMQPYIPMVLHQLVEIINRPNTPKTLLENTAITIGRLGYVCPQEVAPMLQQFIRPWCTSLRNIRDNEEKDSAFRGICTMISVNPSGVIQDFIFFCDAVASWINPKDDLRDMFCKILHGFKNQVGDENWRRFSDQFPLPLKERLAAFYGV
B7: sp¦Q96I99¦SUCB2_HUMAN (protein, UniProt Q96I99 38-432, looked up)
Succinate--CoA ligase …: LNLQEYQSKKLMSDNGVRVQRFFVADTANEALEAAKRLNAKEIVLKAQILAGGRGKGVFNSGLKGGVHLTKDPNVVGQLAKQMIGYNLATKQTPKEGVKVNKVMVAEALDISRETYLAILMDRSCNGPVLVGSPQGGVDIEEVAASNPELIFKEQIDIFEGIKDSQAQRMAENLGFVGPLKSQAADQITKLYNLFLKIDATQVEVNPFGETPEGQVVCFDAKINFDDNAEFRQKDIFAMDDKSENEPIENEAAKYDLKYIGLDGNIACFVNGAGLAMATCDIIFLNGGKPANFLDLGGGVKEAQVYQAFKLLTADPKVEAILVNIFGGIVNCAIIANGITKACRELELKVPLVVRLEGTNVQEAQKILNNSGLPITSAIDLEDAAKKAVASVAKK
B8: sp¦Q13637¦RAB32_HUMAN (protein, UniProt Q13637 2-225, looked up)
Ras-related protein Rab-32: AGGGAGDPGLGAAAAPAPETREHLFKVLVIGELGVGKTSIIKRYVHQLFSQHYRATIGVDFALKVLNWDSRTLVRLQLWDIAGQERFGNMTRVYYKEAVGAFVVFDISRSSTFEAVLKWKSDLDSKVHLPNGSPIPAVLLANKCDQNKDSSQSPSQVDQFCKEHGFAGWFETSAKDNINIEEAARFLVEKILVNHQSFPNEENDVDKIKLDQETLRAENKSQCC

For the experiment, the system named is human HL60 cells. Nature of the experiment: SWATH-MS proteomics, differential protein representation, akirin2 KO vs WT HL60 cells. In kind it is cell-based. The conditions noted are these: akirin2 KO vs WT HL60 cells; sheet "Under-represented in KO". The procedure, abridged:
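Proteins from WT and akirin2 KO HL60 cells (n=3 biological replicates) were FASP trypsin-digested and analyzed by SWATH-MS DIA with variable windows against an IDA-derived spectral library. Identifications at 1% global FDR; quantities normalized to total area sums of all detected proteins.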
As to B1, the “Fold Change” value is 0.6611 and the “Log (Fold Change)” value is listed as -0.1797.

Regarding B2, the “Fold Change” value is reported as 0.6591 and the “Log (Fold Change)” value is listed as -0.1811.

Consider B3, for which the “Fold Change” value was 0.6651 and the “Log (Fold Change)” value is given as -0.1771.

Regarding B4, the “Fold Change” value was found to be 0.6622 and the “Log (Fold Change)” value is -0.179.

Turning to B5, the “Fold Change” value stood at 0.285 and the “Log (Fold Change)” value is -0.5451.

With B6, the “Fold Change” value stood at 0.6517 and the “Log (Fold Change)” value was -0.186.

Take B7: the “Fold Change” value amounted to 0.6651 and the “Log (Fold Change)” value is -0.1771.

As for B8, the “Fold Change” value is reported as 0.6519 and the “Log (Fold Change)” value was -0.1858.

For the origin of these results see paper PMC8298264, “Function of cofactor Akirin2 in the regulation of gene expression in model human neutrophil-like HL60 cells” (Bioscience Reports, 2021).
